Results: patent US8241610B2, “Adjuvant combinations of liposomes and mycobacterial lipids for immunization compositions and vaccines” (Statens Serum Institut, priority 2003, dated 2012)

B1: OVA: Ovalbumin, Sigma Aldrich; given in total lipids/DDA (protein, UniProt P01012 2-386, looked up)
Ovalbumin: GSIGAASMEFCFDVFKELKVHHANENIFYCPIAIMSALAMVYLGAKDSTRTQINKVVRFDKLPGFGDSIEAQCGTSVNVHSSLRDILNQITKPNDVYSFSLASRLYAEERYPILPEYLQCVKELYRGGLEPINFQTAADQARELINSWVESQTNGIIRNVLQPSSVDSQTAMVLVNAIVFKGLWEKAFKDEDTQAMPFRVTEQESKPVQMMYQIGLFRVASMASEKMKILELPFASGTMSMLVLLPDEVSGLEQLESIINFEKLTEWTSSNVMEERKIKVYLPRMKMEEKYNLTSVLMAMGITDVFSSSANLSGISSAESLKISQAVHAAHAEINEAGREVVGSAEAGVDAASVSEEFRADHPFLFCIKHIATNAVLFFGRCVSP

Tests used:
blood lymphocytes = test: IFN-gamma release from blood lymphocytes of immunized mice re-stimulated in vitro with antigen (ELISA); settings: mouse, in vivo, sc
antigen-specific IgG = system: antigen-specific IgG; set-up: species or system mice; settings: mouse, in vivo, sc

Molecule	Immune response: release of IFN-gamma from blood lymphocytes (blood lymphocytes)	IgG1, antigen-specific levels (midpoint titres) (antigen-specific IgG)	IgG2a, antigen-specific levels (midpoint titres) (antigen-specific IgG)
Tetanus toxoid: Tetanus toxoid from Statens Serum Institut; given in total lipids/DDA	52500 ± 13500	–	–
B1	793 ± 81	2500	<100
